# Measured values reported in the Human Domainome abundance scans (Beltran et al. 2025).
# ± gives the uncertainty stated by the source.
# B1: POU domain, class 3, transcription factor 4, residues 280 to 335; numbered along this chain, P49335 (parent)
# chain: KKRTSIEVSVKGVLETHFLKCPKPAAQEISSLADSLQLEKEVVRVWFCNRRQKEKR
# Variants of: B1
# Assay: abundance fitness (aPCA) (normalised: wild type 0, dead -1); higher = more abundant; growth selection in yeast, the domain comes from the species named
# Conditions: Homo sapiens
row,Variant,abundance fitness
1,KKRTSIEVSVKGVLETHFLKCPKPAAQEISSLADSLQLEKEVVRVWFCNRRQKEPR,-0.764 ± 0.33
2,KKRTSIEVSVKGVLETHFLKCPKPIAQEISSLADSLQLEKEVVRVWFCNRRQKEKR,-0.297 ± 0.22
3,KKRTSIEVSVKGVLETHFLKCPKPAAQEISSLADSLQLEKEVVRVWFCARRQKEKR,-0.373 ± 0.17
4,KKRTSIEVSVKGVLETHFLKCPKPAAQEISSLADSLQLEKEVVRVWFCCRRQKEKR,-0.686 ± 0.28
5,KKRTSIEVSVKGVLETHFLKCPKPAAQEISSLADSLQLEKEVVRVWFCKRRQKEKR,-0.119 ± 0.16
6,KKRTSIEVSVKGVLETHFLKCPKPAAQEISSLADSLQLEKEVVRVWFCTRRQKEKR,-0.363 ± 0.14
7,KKRTSIEVHVKGVLETHFLKCPKPAAQEISSLADSLQLEKEVVRVWFCNRRQKEKR,0.277 ± 0.45
8,GKRTSIEVSVKGVLETHFLKCPKPAAQEISSLADSLQLEKEVVRVWFCNRRQKEKR,-0.243 ± 0.4
9,DKRTSIEVSVKGVLETHFLKCPKPAAQEISSLADSLQLEKEVVRVWFCNRRQKEKR,-0.185 ± 0.49
10,KKRTSIEVSVKGVLETHFLKCPKPANQEISSLADSLQLEKEVVRVWFCNRRQKEKR,-0.043 ± 0.22
11,KKRTSIEVSVKGVLETHFLKCPKPAYQEISSLADSLQLEKEVVRVWFCNRRQKEKR,-0.254 ± 0.23
12,KKRTSIEVSVKGVLETHFLKCPKPATQEISSLADSLQLEKEVVRVWFCNRRQKEKR,-0.017 ± 0.17
13,KKRTSIEVSVKGVLETHFLKCPKPAAQEISSLNDSLQLEKEVVRVWFCNRRQKEKR,-0.964 ± 0.38
14,KKRTSIEVSVKGVLETHFLKCPKPAAQEISSLADSLQLEKEVVPVWFCNRRQKEKR,-0.865 ± 0.26
15,KKRTSIEVSVKGVLETHFLKCPKPAAQEISSLADSLQLEKEVVGVWFCNRRQKEKR,-0.473 ± 0.14
16,KKRTSIEVSVKGVLETHFLKCPKPAAQEISSLADSLQLEKEVVRVWFCNRRQKSKR,-0.679 ± 0.18
17,KKRTSIEVSVKGVLETHFLKCPKPAAQEISSLADSLQLEKEVVRVWFCNRRQKMKR,-0.819 ± 0.3
18,KKRTSIEVSVKGVLETHKLKCPKPAAQEISSLADSLQLEKEVVRVWFCNRRQKEKR,-0.461 ± 0.21
19,KKRTSIEVSVKGVLETHGLKCPKPAAQEISSLADSLQLEKEVVRVWFCNRRQKEKR,-0.741 ± 0.11
20,KKRTSIEVSVKGVLETHFLKCPKPAAQVISSLADSLQLEKEVVRVWFCNRRQKEKR,-0.398 ± 0.11
21,KKRTSIEVSVKGVLETHFLKCPKPAAQHISSLADSLQLEKEVVRVWFCNRRQKEKR,-0.63 ± 0.24
22,KKRTSIEVSVKGVLETHFLKCPKPAAQTISSLADSLQLEKEVVRVWFCNRRQKEKR,-0.411 ± 0.17
23,KKRTSTEVSVKGVLETHFLKCPKPAAQEISSLADSLQLEKEVVRVWFCNRRQKEKR,-0.201 ± 0.096
24,KKRTSIEVSTKGVLETHFLKCPKPAAQEISSLADSLQLEKEVVRVWFCNRRQKEKR,-0.21 ± 0.3

row,Variant,abundance fitness
1,KKRTSIEVSYKGVLETHFLKCPKPAAQEISSLADSLQLEKEVVRVWFCNRRQKEKR,-0.503 ± 0.36
2,KKRTSIEVSVKGVLETHFLKCPKPAAQEISSLADSLQLEKEVVRVWFCNRRQAEKR,-0.066 ± 0.13
3,KKRTSIEVSVKGVLETHFEKCPKPAAQEISSLADSLQLEKEVVRVWFCNRRQKEKR,-0.391 ± 0.18
4,KKRTSIEVSVKGVLETHFLKCPKPAAQEISSLADSLQLEKEVVRVWFCNRREKEKR,0.084 ± 0.17
5,KKRTSIEVSVKGVLETHFLKCTKPAAQEISSLADSLQLEKEVVRVWFCNRRQKEKR,-0.796 ± 0.23
6,KKRTSIEVSVKGVLETHFLKCIKPAAQEISSLADSLQLEKEVVRVWFCNRRQKEKR,-0.606 ± 0.28
7,KKRTSIEVSVKGVLETHFLKCGKPAAQEISSLADSLQLEKEVVRVWFCNRRQKEKR,-0.909 ± 0.19
8,KKRTSIEVSVKGVLETHFLKCSKPAAQEISSLADSLQLEKEVVRVWFCNRRQKEKR,-0.427 ± 0.13
9,KKRTSIEVSVKGVLETHFLKCPKPAAQEISSLASSLQLEKEVVRVWFCNRRQKEKR,-0.317 ± 0.13
10,KKRTSIEVSVKGVLETHFLKCPKPAAQEISSLANSLQLEKEVVRVWFCNRRQKEKR,-0.384 ± 0.21
11,KKRTSIEVSVKGVLETHFLKCPKPAAQEISSLAESLQLEKEVVRVWFCNRRQKEKR,-0.172 ± 0.18
12,KKRTSIEVSVKGVLETHFLKCPKPAAQEISSLAKSLQLEKEVVRVWFCNRRQKEKR,0.109 ± 0.22
13,KKRTSIEVSVKGVLETHFLKCPKPAAQEISSLATSLQLEKEVVRVWFCNRRQKEKR,-0.472 ± 0.19
14,KKRTSIEVSVKGVLETHFLKCPKPAAQEISSLACSLQLEKEVVRVWFCNRRQKEKR,-0.531 ± 0.37
15,KKRTSIHVSVKGVLETHFLKCPKPAAQEISSLADSLQLEKEVVRVWFCNRRQKEKR,0.105 ± 0.089
16,KKRTSILVSVKGVLETHFLKCPKPAAQEISSLADSLQLEKEVVRVWFCNRRQKEKR,-0.163 ± 0.087
17,KKRTSIEVSVKGVLETHFLKCPKPAAQEISSLADSLQLEKEVVRGWFCNRRQKEKR,-0.25 ± 0.14
18,KKRTSIEVSVKGVLETHFLKCPKPAAQEISSLADSLQLEKEVVRLWFCNRRQKEKR,0.052 ± 0.12
19,KKRTSIEVSVKGVLETHFLKCPKPAAQEISSLADSLQLEKEVVRNWFCNRRQKEKR,0.373 ± 0.17
20,KKRTIIEVSVKGVLETHFLKCPKPAAQEISSLADSLQLEKEVVRVWFCNRRQKEKR,-0.107 ± 0.2
21,KKRTFIEVSVKGVLETHFLKCPKPAAQEISSLADSLQLEKEVVRVWFCNRRQKEKR,-0.155 ± 0.21
22,KKRTSIEVSVKGVLETHFLKDPKPAAQEISSLADSLQLEKEVVRVWFCNRRQKEKR,0.059 ± 0.21
23,KKRTSIEVSVKGVLETHFLKTPKPAAQEISSLADSLQLEKEVVRVWFCNRRQKEKR,-0.336 ± 0.17
